Assay results as given in publication doi:10.1101/2023.09.26.559624 (bioRxiv, 2023).

Columns and labels:
[1] = biological target: T1, human non-variant SASH1-SPIDER (396-564) (human, UniProt O94885 396-564); test: MST
T1 sequence (looked up): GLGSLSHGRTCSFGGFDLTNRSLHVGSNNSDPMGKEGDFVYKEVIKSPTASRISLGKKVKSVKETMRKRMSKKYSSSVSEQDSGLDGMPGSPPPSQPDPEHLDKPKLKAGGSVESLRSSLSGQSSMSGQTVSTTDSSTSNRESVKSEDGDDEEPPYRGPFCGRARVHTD

[2] = biological target: T2, SASH1-SPIDER (396-564) S519N (human, UniProt O94885 396-564, S519N); test: NMR titration
T2 sequence (looked up): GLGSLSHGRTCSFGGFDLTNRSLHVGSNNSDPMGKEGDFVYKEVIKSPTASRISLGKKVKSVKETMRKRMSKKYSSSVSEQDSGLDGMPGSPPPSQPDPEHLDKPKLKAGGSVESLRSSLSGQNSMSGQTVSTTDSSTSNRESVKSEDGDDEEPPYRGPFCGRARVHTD

B1: ARC4 domain of TNKS2 with flanking residues (488-649) (domain or fragment, UniProt Q9H2K2 488-649, looked up)
chain: GNSEADRQLLEAAKAGDVETVKKLCTVQSVNCRDIEGRQSTPLHFAAGYNRVSVVEYLLQHGADVHAKDKGGLVPLHNACSYGHYEVAELLVKHGAVVNVADLWKFTPLHEAAAKGKYEICKLLLQHGADPTKKNRDGNTPLDLVKDGDTDIQDLLRGDAAL
modifications: red fluorescent dye NT-647 Maleimide (in the MST experiment only)
In the case of B1, the Kd [1] is reported as 1700 ± 400 nM and the “fold attenuation of affinity against N.V.” value [2] is reported as about 10 fold.
